# Measured values reported in US20240270821A1, “GIP/GLP1/GCG TRI-RECEPTOR AGONISTS AND USES THEREOF” (priority 2023, published 2024).
# T1: human GIP receptor (human) (UniProt P48546)
# T1 sequence (looked up): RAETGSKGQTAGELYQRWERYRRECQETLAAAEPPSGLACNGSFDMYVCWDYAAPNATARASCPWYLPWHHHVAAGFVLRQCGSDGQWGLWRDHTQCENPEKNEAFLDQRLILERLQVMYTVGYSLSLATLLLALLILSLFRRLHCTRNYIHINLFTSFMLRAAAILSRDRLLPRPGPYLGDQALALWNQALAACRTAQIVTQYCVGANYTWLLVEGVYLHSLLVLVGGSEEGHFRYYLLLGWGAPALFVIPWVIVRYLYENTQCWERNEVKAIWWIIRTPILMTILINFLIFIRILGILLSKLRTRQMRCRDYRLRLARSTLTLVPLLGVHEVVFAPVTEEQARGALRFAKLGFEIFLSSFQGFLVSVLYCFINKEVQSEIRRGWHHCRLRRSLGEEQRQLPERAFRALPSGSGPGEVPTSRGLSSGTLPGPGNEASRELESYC
# B1: Example 965 (peptide)
# chain: YXQGTFTSDXSRXLDKKAQXAFIEYLIAGGESSGAPPPSGSEE
# modifications: synthetic construct; SITE 2: note = 2-Aminoisobutyric Acid; SITE 10: note = 3-(4-Pyridyl)-L-alanine; SITE 13: note = alpha-methyl-leucine; SITE 17: note = Lysine is chemically modified through conjugation of the epsilon-amino group of the Lysine side chain with (gamma-Glu)2-CO-(CH2)16-CO2H; SITE 20:
# B2: Example 972 (peptide)
# chain: YXQGTFTSDXSXXLDXKAQXQFIEXLIEGGPSSGAPPPSGSEE
# modifications: non-natural residues; (γGlu)2-C18 diacid on Lys; C-terminal amide; synthetic construct; SITE 2: note = 2-Aminoisobutyric Acid; SITE 10: note = 3-(4-Pyridyl)-L-alanine; SITE 12: note = L-ornithine; SITE 13: note = alpha-methyl-leucine; SITE 16: note = L-ornithine; SITE 17: note = Lysine is chemically modified through conjugation of the epsilon-amino group of the Lys
# B3: Example 976 (peptide)
# chain: YXQGTFTSDXSXXLDXKAQXEFIEXLLEGGPSSGAPPPSGSEE
# modifications: non-natural residues; lipidated Lys; C-terminal amide; synthetic construct; SITE 2: note = 2-Aminoisobutyric Acid; SITE 10: note = 3-(4-Pyridyl)-L-alanine; SITE 12: note = L-ornithine; SITE 13: note = alpha-methyl-leucine; SITE 16: note = L-ornithine; SITE 17: note = Lysine is chemically modified through conjugation of the epsilon-amino group of the Lys
# B4: Example 962 (peptide)
# chain: YXQGTFTSDXSRXLDKKAQXAFIEYLIAGGPSSGAPPPSGSEE
# modifications: synthetic construct; SITE 2: note = 2-Aminoisobutyric Acid; SITE 10: note = 3-(4-Pyridyl)-L-alanine; SITE 13: note = alpha-methyl-leucine; SITE 17: note = Lysine is chemically modified through conjugation of the epsilon-amino group of the Lysine side chain with (gamma-Glu)2-CO-(CH2)16-CO2H; SITE 20:
# B5: Example 981 (peptide)
# chain: YXQGTFTSDXSXXLDKKAQXAFIEYLIAGGPSSGEPPPSGTEE
# modifications: synthetic construct; SITE 2: note = 2-Aminoisobutyric Acid; SITE 10: note = 3-(4-Pyridyl)-L-alanine; SITE 12: note = L-ornithine; SITE 13: note = alpha-methyl-leucine; SITE 17: note = Lysine is chemically modified through conjugation of the epsilon-amino group of the Lysine side chain with (gamma-Gl)
# B6: Example 975 (peptide)
# chain: YXQGTFTSDXSXXLDXKAQXQFIEXLLEGGPSSGAPPPSGSEE
# modifications: non-natural residues; acylated Lys; C-terminal amide; synthetic construct; SITE 2: note = 2-Aminoisobutyric Acid; SITE 10: note = 3-(4-Pyridyl)-L-alanine; SITE 12: note = L-ornithine; SITE 13: note = alpha-methyl-leucine; SITE 16: note = L-ornithine; SITE 17: note = Lysine is chemically modified through conjugation of the epsilon-amino group of the Lys
# B7: Example 961 (peptide)
# chain: YXQGTFTSDXSXXLDKKAQXAFIEYLIAGGPSSGAPPPSGSEE
# modifications: synthetic construct; SITE 2: note = 2-Aminoisobutyric Acid; SITE 10: note = 3-(4-Pyridyl)-L-alanine; SITE 12: note = L-ornithine; SITE 13: note = alpha-methyl-leucine; SITE 17: note = Lysine is chemically modified through conjugation of the epsilon-amino group of the Lysine side chain with (gamma-Gl)
# B8: Example 967 (peptide)
# chain: YXQGTFTSDXSXXLDKKAQXAFIEXLIEGGPSSGAPPPSGSEE
# modifications: Aib, 4Pal, Orn, Me4Pal, αMeY; acylated lysine; amide; synthetic construct; SITE 2: note = 2-Aminoisobutyric Acid; SITE 10: note = 3-(4-Pyridyl)-L-alanine; SITE 12: note = L-ornithine; SITE 13: note = alpha-methyl-leucine; SITE 17: note = Lysine is chemically modified through conjugation of the epsilon-amino group of the Lysine side chain with (gamma-Gl)
# B9: Example 960 (peptide)
# chain: YXQGTFTSDXSQXLDKKAQXAFIEYLIAGGPSSGAPPPSGSEE
# modifications: synthetic construct; SITE 2: note = 2-Aminoisobutyric Acid; SITE 10: note = 3-(4-Pyridyl)-L-alanine; SITE 13: note = alpha-methyl-leucine; SITE 17: note = Lysine is chemically modified through conjugation of the epsilon-amino group of the Lysine side chain with (gamma-Glu)2-CO-(CH2)16-CO2H; SITE 20:
# B10: Example 959 (peptide)
# chain: YXQGTFTSDXSRXLDKKAQXAFIEXLIEGGPSSGAPPPSGSEE
# modifications: Aib, 4Pal, αMeL, Me4Pal; acylated Lys; C-terminal amide; synthetic construct; SITE 2: note = 2-Aminoisobutyric Acid; SITE 10: note = 3-(4-Pyridyl)-L-alanine; SITE 13: note = alpha-methyl-leucine; SITE 17: note = Lysine is chemically modified through conjugation of the epsilon-amino group of the Lysine side chain with (gamma-Glu)2-CO-(CH2)16-CO2H; SITE 20:
# B11: Example 973 (peptide)
# chain: YXQGTFTSDXSXXLDXKAQXEFIEXLIEGGPSSGAPPPSGSEE
# modifications: Aib, 4Pal, Orn, Me4Pal, αMeY; acylated lysine; amide; synthetic construct; SITE 2: note = 2-Aminoisobutyric Acid; SITE 10: note = 3-(4-Pyridyl)-L-alanine; SITE 12: note = L-ornithine; SITE 13: note = alpha-methyl-leucine; SITE 16: note = L-ornithine; SITE 17: note = Lysine is chemically modified through conjugation of the epsilon-amino group of the Lys
# B12: Example 964 (peptide)
# chain: YXQGTFTSDXSXXLDKKAQXAFIEYLIAGGESSGAPPPSGSEE
# modifications: synthetic construct; SITE 2: note = 2-Aminoisobutyric Acid; SITE 10: note = 3-(4-Pyridyl)-L-alanine; SITE 12: note = L-ornithine; SITE 13: note = alpha-methyl-leucine; SITE 17: note = Lysine is chemically modified through conjugation of the epsilon-amino group of the Lysine side chain with (gamma-Gl)
# B13: Example 978 (peptide)
# chain: YXQGTFTSDXSQXLDXKAQXAFIEYLIAGGPSSGEPPPSGSGE
# modifications: synthetic construct; SITE 2: note = 2-Aminoisobutyric Acid; SITE 10: note = 3-(4-Pyridyl)-L-alanine; SITE 13: note = alpha-methyl-leucine; SITE 16: note = L-ornithine; SITE 17: note = Lysine is chemically modified through conjugation of the epsilon-amino group of the Lysine side chain with (gamma-Gl)
# B14: Example 982 (peptide)
# chain: YXQGTFTSDXSXXLDKKAQXAFIEYLIAGGPSSGEPPPSGTEEE
# modifications: synthetic construct; SITE 2: note = 2-Aminoisobutyric Acid; SITE 10: note = 3-(4-Pyridyl)-L-alanine; SITE 12: note = L-ornithine; SITE 13: note = alpha-methyl-leucine; SITE 17: note = Lysine is chemically modified through conjugation of the epsilon-amino group of the Lysine side chain with (gamma-Gl)
# B15: Example 986 (peptide)
# chain: YXQGTFTSDXSQXLDXKAQXAFIEYLIAGGPSSGEPPPSGTEEE
# modifications: synthetic construct; SITE 2: note = 2-Aminoisobutyric Acid; SITE 10: note = 3-(4-Pyridyl)-L-alanine; SITE 13: note = alpha-methyl-leucine; SITE 16: note = L-ornithine; SITE 17: note = Lysine is chemically modified through conjugation of the epsilon-amino group of the Lysine side chain with (gamma-Gl)
# Key:
# Assay in all cases: cell-based or functional assay
# [1] = molecular target: T1, human GIP receptor (human)
# [2] = molecular target: human glucagon receptor (human) (UniProt P47871)
# Sequence of human glucagon receptor (human) (P47871 26-477): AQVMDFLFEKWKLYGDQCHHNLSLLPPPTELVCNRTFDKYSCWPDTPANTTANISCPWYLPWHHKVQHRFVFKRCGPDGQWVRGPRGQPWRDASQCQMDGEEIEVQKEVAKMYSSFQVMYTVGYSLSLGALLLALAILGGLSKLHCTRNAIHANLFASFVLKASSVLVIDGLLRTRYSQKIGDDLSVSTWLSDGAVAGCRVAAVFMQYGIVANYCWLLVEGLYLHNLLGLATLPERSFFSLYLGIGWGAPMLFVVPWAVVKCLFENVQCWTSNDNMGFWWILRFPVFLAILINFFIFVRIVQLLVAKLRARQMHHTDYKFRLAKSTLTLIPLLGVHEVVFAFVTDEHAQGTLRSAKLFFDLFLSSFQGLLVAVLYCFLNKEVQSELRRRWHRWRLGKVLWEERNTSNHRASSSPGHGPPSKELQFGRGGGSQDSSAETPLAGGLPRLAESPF
# hGLP-1R = hGLP-1R (Homo sapiens, UniProt P43220)
# Sequence of hGLP-1R (P43220 24-463): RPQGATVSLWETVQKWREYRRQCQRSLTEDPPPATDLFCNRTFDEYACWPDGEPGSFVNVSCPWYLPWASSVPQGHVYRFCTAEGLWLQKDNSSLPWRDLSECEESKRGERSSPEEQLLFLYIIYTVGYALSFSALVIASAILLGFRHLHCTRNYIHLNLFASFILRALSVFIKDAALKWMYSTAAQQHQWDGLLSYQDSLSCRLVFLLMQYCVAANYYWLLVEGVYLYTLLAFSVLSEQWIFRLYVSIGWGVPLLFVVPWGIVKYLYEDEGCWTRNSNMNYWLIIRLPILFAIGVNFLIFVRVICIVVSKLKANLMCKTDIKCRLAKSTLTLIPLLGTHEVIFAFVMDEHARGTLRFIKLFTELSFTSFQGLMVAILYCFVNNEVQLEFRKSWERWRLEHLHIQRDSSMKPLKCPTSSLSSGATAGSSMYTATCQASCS
Binder,Relative cAMP EC50 [1],"cAMP Rel EC50, nM (1% HSA) [1]",Relative cAMP EC50 [2],"cAMP Rel EC50, nM (1% HSA) [2]",Relative cAMP EC50 (hGLP-1R),"cAMP Rel EC50, nM (1% HSA) (hGLP-1R)"
B1,0.13 nM,23.2 nM,3.35 nM,430 nM,1.39 nM,194 nM
B2,,30.4 nM,,660 nM,,327 nM
B3,,82.7 nM,,848 nM,,2860 nM
B4,0.0972 nM,9.71 nM,3.13 nM,485 nM,1.36 nM,132 nM
B5,0.243 nM,21.1 nM,3.7 nM,477 nM,4.45 nM,330 nM
B6,,30.1 nM,,374 nM,,1810 nM
B7,0.167 nM,13.6 nM,2.96 nM,342 nM,2.52 nM,216 nM
B8,,39.5 nM,,508 nM,,345 nM
B9,0.124 nM,14.1 nM,5.5 nM,813 nM,1.51 nM,161 nM
B10,,24.5 nM,,316 nM,,503 nM
B11,,60.1 nM,,2270 nM,,1140 nM
B12,0.288 nM,21.4 nM,2.75 nM,324 nM,2.67 nM,267 nM
B13,0.284 nM,33.9 nM,8.91 nM,824 nM,1.6 nM,174 nM
B14,0.328 nM,19.4 nM,3.91 nM,307 nM,4.94 nM,310 nM
B15,0.299 nM,31.3 nM,4.94 nM,702 nM,3.06 nM,380 nM
